In patent publication US20240216517A1 (CELLEMEDY, published 2024) one finds Kd data, which are given here for one molecule.

For this experiment, the target named is T1, human transferrin receptor-Fc tag standard (human, UniProt P02786 89-760).
T1 construct: This is a bought standard coated on the ELISA plate; also called hTfR; not shown: Fc tag
Put plainly: ELISA, human transferrin receptor-Fc coated on the plate; Kd calculated from an expected saturation point, curve not saturated at 10000 nM. As for the experimental part:
Then, it was washed 3 times with 200 μl of PBST (PBS+Tween0.05%). An antibody (mouse anti-His tag antibody, Hisprobe) that specifically binds to the hexa-His tag was diluted 1/1000 in PBST, and the diluted solution was treated by 100 μl at room temperature for 1 hour.
Then, it was washed 3 times with 200 μl of PBST (PBS+Tween0.05%). TMB solution expressing coloration by reacting with HRP was treated by 100 μl at room temperature for 15 minutes. After 50 μl of 1M H₂SO₄ solution was treated, optical density was measured with TECAN at a wavelength of 450 nm. This was calculated using the Langmuir equation (Table 5, FIGS. 8 to 10).
FIG. 11 illustrates results of evaluation/comparison of the binding force of huHF_mutant1-dual and huHF_mutant2-dual to hTfR.

T1 sequence (P02786 89-760 limits assumed): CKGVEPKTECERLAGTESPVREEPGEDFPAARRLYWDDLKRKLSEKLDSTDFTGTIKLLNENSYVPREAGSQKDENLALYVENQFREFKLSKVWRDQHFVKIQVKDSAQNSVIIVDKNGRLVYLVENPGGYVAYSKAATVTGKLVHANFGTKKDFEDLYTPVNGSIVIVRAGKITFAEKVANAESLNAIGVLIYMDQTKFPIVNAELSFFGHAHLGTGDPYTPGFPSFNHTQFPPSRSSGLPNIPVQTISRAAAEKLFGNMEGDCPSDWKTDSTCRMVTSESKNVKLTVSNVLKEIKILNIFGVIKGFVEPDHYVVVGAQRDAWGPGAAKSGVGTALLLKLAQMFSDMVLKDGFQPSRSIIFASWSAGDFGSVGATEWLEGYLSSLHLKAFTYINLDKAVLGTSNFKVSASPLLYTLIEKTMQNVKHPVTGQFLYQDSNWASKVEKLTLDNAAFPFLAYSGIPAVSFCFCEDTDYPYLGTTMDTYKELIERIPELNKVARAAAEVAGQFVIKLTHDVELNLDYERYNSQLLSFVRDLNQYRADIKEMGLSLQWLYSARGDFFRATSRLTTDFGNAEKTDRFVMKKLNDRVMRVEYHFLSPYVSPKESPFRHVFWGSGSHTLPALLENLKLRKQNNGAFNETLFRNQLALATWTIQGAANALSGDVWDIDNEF

B1: huHF_Mutant2-dual (designed binder)
chain: MTTASTSQVRQNYHAASEAAINAQINLELYASYVYLSMSYYFDRDDVALKNFAKYFLHQSHEEREHAEKLMKLQNQRGGRIALADIQKPDCDGGSYGSLYAFDIDWESGLNAMECALHLEKNVNQSLLALHALATAKNDPHLCDFIETHYLNEQVKAIKELGDHVTNLRKMGAPESGLAEYLFDKHTLGDSDNESMPSFITLASLSTWEGYFDF
notes: It self-assembles into a 24-mer nanoparticle
In the case of B1, the Kd was around 4.4 µM.
